US20250121078A1, “PEPTIDE DRUG CONJUGATES AND THEIR USES” (priority 2023, published 2025)
Where a SMILES comes first, the peptide text is derived from it. [ ]: non-standard residue; d: D form. The star is where a group is joined. X1 = COc1cc2cc(c1Cl)N(C)C(=O)C[C@H](OC(=O)[C@H](C)N(C)C(=O)CCSSCCC(=O)*)[C@]1(C)O[C@H]1C(C)[C@@H]1C[C@@](O)(NC(=O)O1)[C@H](OC)/C=C/C=C(\C)C2; d(hArg(Et2)) = CCN=C(NCC)NCCCC[C@@H](N)C(=O)O; dPhe(4-Cl) = N[C@H](Cc1ccc(Cl)cc1)C(=O)O; d2Nal = N[C@H](Cc1ccc2ccccc2c1)C(=O)O; d3Pal = N[C@H](Cc1cccnc1)C(=O)O

Legend:
[1] = biological target: T1, LHRHR, also known as GnRHR (Homo sapiens, UniProt P30968); assay: Radioligand binding assay ([125I]-[D-Trp6]-LHRH displacement)
T1 sequence (P30968 1-328): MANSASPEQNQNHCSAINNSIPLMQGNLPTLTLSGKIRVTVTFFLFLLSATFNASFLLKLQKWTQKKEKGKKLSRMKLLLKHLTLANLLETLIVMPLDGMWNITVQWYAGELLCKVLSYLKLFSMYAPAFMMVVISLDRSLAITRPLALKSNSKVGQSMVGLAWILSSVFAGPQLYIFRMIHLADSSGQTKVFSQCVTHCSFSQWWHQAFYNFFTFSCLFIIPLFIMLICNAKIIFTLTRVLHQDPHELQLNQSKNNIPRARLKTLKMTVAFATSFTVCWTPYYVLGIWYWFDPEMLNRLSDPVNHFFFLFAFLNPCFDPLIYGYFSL
Method: An amount of 2 μg of a purified membrane with LHRHR, also known as GnRHR, was incubated with 0.18 nM [125I]-[D-Trp6]-LHRH and compounds of interest in the incubation buffer (50 mM HEPES, pH 7.4, 5 mM MgCl2, 1 mM CaCl2, and 0.2% BSA). The reaction mixtures were incubated for 1 h at 25° C. and then were transferred to a 96-well GF/B filter plate (Millipore Corp., Billerica, MA, USA), which were terminated by manifold filtration and washed with a wash buffer (50 mM HEPES, pH 7.4, and 100 mM NaCl) for six times. The radioactivity bound to the filter was measured by a Topcount® system (PerkinElmer Inc., Waltham, MA, USA). IC50 values were determined by the concentration of a compound required to inhibit 50% of the specific binding of [125I]-[D-Trp6]-LHRH and calculated by nonlinear regression (GraphPad Software, San Diego, CA, USA). The design of these drug conjugates is to actively targeting LHRH-receptor at tumor site and facilitate drug conjugate accumulation in situ. Therefore, selective and strong binding of the synthetic peptide ligand with the receptor is important to allow enrichment of these conjugates, followed by release of the drug payload in the tumor microenvironment.
Compounds of the invention have a binding as low as 0.17 nM.

[2] = In vivo pharmacokinetic profile, mouse single IV dose; settings: for Vss (I/kg) / clearance / AUC(0-t): Mouse IV, dose 5 mg/kg; for clearance / AUC(0-t): in vivo; for AUC(0-t): read-out: AUC(0-24 hr); for AUC coverage: single intravenous dose
Method: Pharmacokinetic properties of compounds of the invention were measured following the procedures described in Liu et al., Bioconjugate Chem. 2017, 28, 7, 1878-1892.

[3] = tested on: HCC1806 triple negative breast cancer; assay: In vivo anti-tumor activity in triple-negative breast HCC1806 tumor model; parameters: species or system immunodeficient nude mice; settings: 1 mg/kg to 2.5 mg/kg, every other week, once a week, or twice a week
Method: In vivo anti-tumor activity of Compound 16 was evaluated in triple-negative breast HCC1806 tumor model. HCC1806 cells were suspended with RPMI 1640 medium (phenol red free) and Matrigel™ in 1:1 ratio, and implanted subcutaneously (1×10^6 cells/flank) into the left flank of the immunodeficient nude mice. The tumor volume in mm^3 was calculated by the formula: Volume=(length×width^2)/2. Tumor-bearing mice were randomized (n=8 per group) when the average tumor volume was approximately at 210 mm^3 on day 10 after inoculation. Compound 16 was dissolved in DMA, cremorphor and 5% dextrose solution (1:2:27, v/v/v). Tumor-bearing mice were intravenously administered once weekly (qw) or bi-weekly (b2w) with multiple doses of vehicle control (5 mL/kg) and DBPR376 (2.5 mg/kg). Tumor size and body weight of each animal were measured twice weekly during the study period.
Compounds 8, 9, 11, 14, 16, 25, 26, and 27 were evaluated following the procedure described above.

Structure (SMILES)	IC50 [1] [nM]	Vss (I/kg) [2] [I/kg]	clearance [2] [mL/min/kg]	AUC(0-t) [2] [ng·h/mL]	AUC coverage [2]	inhibition of in vivo tumor growth [3]
COc1cc2cc(c1Cl)N(C)C(=O)C[C@H](OC(=O)[C@H](C)N(C)C(=O)CCSSCCC(=O)NCCCC[C@@H](NC(=O)[C@H](Cc1ccc(O)cc1)NC(=O)[C@H](CO)NC(=O)[C@@H](Cc1cccnc1)NC(=O)[C@@H](Cc1ccc(Cl)cc1)NC(=O)[C@@H](Cc1ccc3ccccc3c1)NC(C)=O)C(=O)N[C@@H](CC(C)C)C(=O)N[C@@H](CCCNC(=N)N)C(=O)N1CCC[C@H]1C(=O)N[C@H](C)C(N)=O)[C@]1(C)O[C@H]1C(C)[C@@H]1C[C@@](O)(NC(=O)O1)[C@H](OC)/C=C/C=C(\C)C2 (stereo partly shown) [Compound 8] (Ac-[d2Nal][dPhe(4-Cl)][d3Pal]SY[dK](X1)LRP[dA]-NH2)	0.1 to 1	0.25	1.6	55100	extensive AUC coverage	effectively inhibited
CCNC(=NCCCC[C@@H](NC(=O)[C@H](CC(C)C)NC(=O)[C@@H](CCCCNC(=O)CCSSCCC(=O)N(C)[C@@H](C)C(=O)O[C@H]1CC(=O)N(C)c2cc(cc(OC)c2Cl)C/C(C)=C/C=C/[C@@H](OC)[C@@]2(O)C[C@H](OC(=O)N2)C(C)[C@@H]2O[C@@]12C)NC(=O)[C@H](Cc1ccc(O)cc1)NC(=O)[C@H](CO)NC(=O)[C@@H](Cc1cccnc1)NC(=O)[C@@H](Cc1ccc(Cl)cc1)NC(=O)[C@@H](Cc1ccc2ccccc2c1)NC(C)=O)C(=O)N1CCC[C@H]1C(=O)N[C@H](C)C(N)=O)NCC (stereo partly shown) [Compound 14] (Ac-[d2Nal][dPhe(4-Cl)][d3Pal]SY[dK](X1)L[d(hArg(Et2))]P[dA]-NH2)	1 to 10	0.2	0.9	88300	extensive AUC coverage	effectively inhibited
COc1cc2cc(c1Cl)N(C)C(=O)C[C@H](OC(=O)[C@H](C)N(C)C(=O)CCSC(=O)c1ccc(CN(CCOCCOCCn3nnc4c3CC[C@H]3[C@@H](CC4)[C@@H]3COC(=O)NCCCC[C@@H](NC(=O)[C@H](Cc3ccc(O)cc3)NC(=O)[C@H](CO)NC(=O)[C@@H](Cc3cccnc3)NC(=O)[C@@H](Cc3ccc(Cl)cc3)NC(=O)[C@@H](Cc3ccc4ccccc4c3)NC(C)=O)C(=O)N[C@@H](CC(C)C)C(=O)N[C@H](CCCNC(=N)N)C(=O)N3CCC[C@H]3C(=O)N[C@H](C)C(N)=O)C(=O)C3(c4ccc(Cl)cc4)CCCCC3)cc1)[C@]1(C)O[C@H]1[C@H](C)[C@@H]1C[C@@](O)(NC(=O)O1)[C@H](OC)/C=C/C=C(\C)C2 [Compound 27]	–	0.1	6.4	15900	–	effectively inhibited
